In US20260217797A1 (Takeda / Millennium, published 2026):
Read-outs that look alike come from different tables or passages of the source.

T1: MERS-CoV [change] (MERS-CoV, UniProt K9N5Q8 18-725)
T1 sequence: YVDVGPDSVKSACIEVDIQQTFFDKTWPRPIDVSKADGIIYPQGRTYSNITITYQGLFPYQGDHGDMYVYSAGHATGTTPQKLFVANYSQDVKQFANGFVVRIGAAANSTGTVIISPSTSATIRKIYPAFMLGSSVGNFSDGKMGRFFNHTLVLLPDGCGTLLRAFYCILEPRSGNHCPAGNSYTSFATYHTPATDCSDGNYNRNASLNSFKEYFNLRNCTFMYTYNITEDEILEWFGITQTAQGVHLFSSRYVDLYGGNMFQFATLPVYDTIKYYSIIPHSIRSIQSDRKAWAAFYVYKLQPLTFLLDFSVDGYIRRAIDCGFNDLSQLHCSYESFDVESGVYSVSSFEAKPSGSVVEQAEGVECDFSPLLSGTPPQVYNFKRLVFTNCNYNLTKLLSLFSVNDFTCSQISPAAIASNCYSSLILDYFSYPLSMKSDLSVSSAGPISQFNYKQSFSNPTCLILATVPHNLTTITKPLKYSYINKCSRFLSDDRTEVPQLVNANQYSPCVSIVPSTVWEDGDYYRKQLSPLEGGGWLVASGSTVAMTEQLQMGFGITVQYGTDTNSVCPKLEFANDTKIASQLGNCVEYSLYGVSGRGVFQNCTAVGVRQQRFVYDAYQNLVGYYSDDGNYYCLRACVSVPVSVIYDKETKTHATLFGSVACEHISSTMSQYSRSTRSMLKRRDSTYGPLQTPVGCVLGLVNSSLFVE


How the values were obtained:
[1] = target: T2, SARS-CoV-2 Spike S1-His (SARS-CoV-2, UniProt P0DTC2 16-685); assay: Octet BLI, IgG, monovalent
[2] = target: T3, SARS-CoV1 Spike [change] (SARS-CoV-1, UniProt P59594 14-667); assay: Octet BLI, IgG, monovalent
[3] = target: T4, SARS-CoV-2 wild type spike protein (on reporter virus particles) (SARS-CoV-2, UniProt P0DTC2 14-1273); assay: cell-based or functional assay
[4] = target: T4, SARS-CoV-2 wild type spike protein (on …); assay: cell-based or functional assay; remark: listed apart in the source
[5] = target: SARS-CoV-2 S Trimer (SARS-CoV-2, UniProt P0DTC2 16-1213); assay: Octet BLI, IgG, avid
[6] = target: T4, SARS-CoV-2 wild type spike protein (on …); assay: cell-based or functional assay; remark: listed apart in the source
[7] = target: T2, SARS-CoV-2 Spike S1-His; assay: Octet BLI, IgG, monovalent; remark: listed apart in the source
[8] = target: T3, SARS-CoV1 Spike [change]; assay: Octet BLI, IgG, monovalent; remark: listed apart in the source
[9] = target: T1, MERS-CoV [change]; assay: Octet BLI, IgG, monovalent

Binder | Kd [1] [nM] | Kd [2] [nM] | WT PsV IC50 [3] [nM] | binding result [2] | PsV Neut Assay IC50 [4] [nM] | Kd [5] [nM] | PSV IC50 [6] [µg/mL] | Kd [7] [nM] | binding result [8] | binding result [9]
A-21.2 (antibody, V domains shown) VH: EVQLVESGGGLVQPGGSLRLSCAASGFTFSRYWMHWVRQAPGKGLVWVSRINSDGSSTTYADSVKGRFTISRDNAKNTLYLQMNSLRAEDTAVYYCARELYYYDSRGAEEGEGWFDPWGQGTLVTVSS VL: QSVLTQPPSVSGAPGQRVTISCTGISSNIGAQYDVHWYQQLPGTAPKLLIYGNSNRPRGVPDRFSASKSGTSAPLAITGLQAEDEADYYCQSSDRSVSGSVFGTGTKVTVL | 0.195 | 7.93 | 2.63 | – | – | – | – | – | – | –
A-21.3 (antibody, V domains shown) VH: EVQLVESGGGLVQPGGSLRLSCAASGFTFRRYWMHWVRQAPGKGLEWVSRINSDGSSTTYADSVEGRFTISRDNAKNTLYLQMNSLRAEDTAVYYCARELYYYDRRGAEEGEGWFDPWGQGTLVTVSS VL: QSVLTQPPSVSGAPGQRVTISCTGISSNIGAEYDVHWYQQLPGTAPKLLIYGNSNRPRGVPDRFSASKSGTSAPLAITGLQAEDEADYYCQVSDRYLSGSVFGTGTKVTVL | 0.241 | 0.893 | 0.946 | – | – | – | – | – | – | –
A-23 (antibody, V domains shown) VH: EVQLVESGGGLVQPGRSLRLSCAASGFTFDDYAMHWVRQAPGKGLEWVSGISWNSGTIGYADSVKGRFIISRDNAKNSLYLQMNSLRGEDMALYYCGKDRKREDPSLGGMDVWGQGTTVTVSS VL: SYVLTQPPSVSVAPGQTARITCGGNNIGSKSVHWYQQKPGQAPVLVVYDDTDRPSGIPERFSGSNSGNTATLTISRVEAGDEADYYCQVWDSSSDHYVFGTGTKVTVL | 2.11 | – | 0.539 | no binding | – | – | – | – | – | –
A-23.1 (antibody, V domains shown) VH: EVQLVESGGGLVQPGRSLRLSCAASGFTIDDYAMHWVRQAPGKGLEWVSGISWNGGTIGYADSVKGRFIISRDNAKNSLYLQMNSLRGEDMALYYCGKDRKREDPSLGGMDVWGQGTTVTVSS VL: SYVLTQPPSVSVAPGQTARITCLGNNIGSKSVHWYQQKPGQAPVLVVYDDTDRPSGIPERFSGSNSGNTATLTISRVEAGDEADYYCQVWDSESDHYVFGTGTKVTVL | 0.829 | – | 0.423 | no binding | – | – | – | – | – | –
A-23.2 (antibody, V domains shown) VH: EVQLVESGGGLVQPGRSLRLSCAASGFTFDDYAMHWVRQAPGKGLEWVSGTSWNSGTIGYADSVKGRFIISRDNAKNSLYLQMNSLRGEDMALYYCVKDRKREDPSLGGMDVWGQGTTVTVSS VL: SYVLTQPPSVSVAPGQTARITCGGNNIGSKSVHWYQQKPGQAPVLVVYDDTDRPSGIPERFSGSNSGNTATLTISRVEAGDEADYYCQVWDVSSDSYVFGTGTKVTVL | 0.454 | – | 0.416 | no binding | – | – | – | – | – | –
A-24.1 (antibody, V domains shown) VH: EVQLVESGGGLVKPGRSLRLSCAASGFTFADYTMSWFRQAPGKGLEWVGFIRSEPYGGTTEYAASVKGRFTISRDDSKSIAYLQMNSLKTEDTAVYYCSRDPWYCSGGDCYAVTGSWFDPWGQGTLVTVSS VL: DIQMTQSPSSLSASVGDRVTITCQASQDIKKYLNWYQQKPGKAPKLLIYDVSNLETGVPSRFSGSGSGTDFTFTISSLQPEDVAIYYCQQYDNLPQTFGQGTKVEIK | 0.999 | – | 0.0657 | no binding | – | – | – | – | – | –
A-24 (antibody, V domains shown) VH: EVQLVESGGGLVKPGRSLRLSCAASGFTFADYAMSWFRQAPGKGLEWVGFIRSKPYGGTTEYAASVKGRFTISRDDSKSIAYLQMNSLKTEDTAVYYCSRDPWYCSGGDCYAVTGSWFDPWGQGTLVTVSS VL: DIQMTQSPSSLSASVGDRVTITCQASQDIKKYLNWYQQKPGKAPKLLIYDVSNLETGVPSRFSGSGSGTDFTFTISSLQPEDVAIYYCQQYDNLPQTFGQGTKVEIK | 5.36 | – | 0.039 | no binding | – | – | – | – | – | –
A-24.2 (antibody, V domains shown) VH: EVQLVESGGGLVKPGRSLRLSCAASGFTFADYTMSWFRQAPGKGLEWVGFIRSEPYGGTTEYAASVKGRFTISRDDSKSIAYLQMNSLKTEDTAVYYCSRDPWYCSGGDCYAVTGSWFDPWGQGTLVTVSS VL: DIQMTQSPSSLSASVGDRVTITCQASQDIKQYLNWYQQKPGKAPKLLIYDQSNLETGVPSRFSGSGSGTDFTFTISSLQPEDVAIYYCQQYWNLPQTFGQGTKVEIK | 0.289 | – | 0.116 | no binding | – | – | – | – | – | –
A-24.3 (antibody, V domains shown) VH: EVQLVESGGGLVKPGRSLRLSCAASGFTFADYTMSWFRQAPGKGLEWVGFIRSEPYGGTTEYAASVKGRFTISRDDSKSIAYLQMNSLKTEDTAVYYCSRDPWYCSGGDCYAVTGSWFDPWGQGTLVTVSS VL: DIQMTQSPSSLSASVGDRVTITCQASRDIKKYLNWYQQKPGKAPKLLIYDVSNLETGVPSRFSGSGSGTDFTFTISSLQPEDVAIYYCQQYDQLPQTFGQGTKVEIE | 0.479 | – | 0.0454 | no binding | – | – | – | – | – | –
A-22.1 (antibody, V domains shown) VH: not shown VL: EIVLTQSPGTLSLSPGERATLSCRASQTVRSDLAWYQQKPGQAPRLLIYGASTRATDISDRFSGSGSGTEFTLTISSLQSEDFAVYYCQQYYEWPPHSDSFGGGTKVEIK | 0.278 | 3.68 | 14.3 | – | – | – | – | – | – | –
A-22.2 (antibody, V domains shown) VH: not shown VL: EIVLTQSPGTLSLSPGERATLSCSASQTVRSDLAWYQQKPGQAPRLLIYGGSTRATDISDRFSGSGSGTEFTLTISSLQSEDFAVYYCQQYYEWPPHSDSFGGGTKVEIK | 0.254 | 10.1 | 3.3 | – | – | – | – | – | – | –
A-22.3 (antibody, V domains shown) VH: not shown VL: EIVLTQSPGTLSLSPGERATLSCRASQTVRSDLAWYQQKPGQAPRLLIYGGSTRATDISDRFSGSGSGTEFTLTISSLQSEDFAVYYCQQYYEWPPHSDSFGGGTKVEIK | 0.245 | 4.77 | 7.1 | – | – | – | – | – | – | –
A-1 (antibody, V domains shown) VH: EVQLVESGGGVVQPGGSLRLSCAASGFAFSTYWMHWVRQAPGKGLVWVSRINGDGSGTNYADSVKGRFTISRDNAKSTLYLQMNSLRTEDTAVYYCTRTAGRGAYDFGRFDPWGQGTLVTVSS VL: DIVLTQTPLSLPVTPGEPASISCRSSQSLLHSNGYNYLDWYLQKAGQSPQLLVFLGSNRASGVPDRFSGSASGTDFTLKISRVEAEDVGVYYCMQALQIPITFGQGTRLEIK | – | – | – | – | 0.116 | 0.865 | 0.017 | 9.6 | no binding | no binding
A-2 (antibody, V domains shown) VH: EVQLVESGGGLIQPGGSLRLSCAASGFTVSSNYMSWVRQAPGKGLEWVSIIYSGGSTYYADSVKGRFTISRDNSKNTLYLQMNSLRAEDTAVYYCARAPSGEYGDPIYYWGQGTLVTVSS VL: QSVLTQPPSASASLGASVKLTCTLSSGHSTYTIAWHQQQPEKGPRYLMKLNSDGSHSKGDGIPDRFSGSSSGAERYLTISSLQSEDEADYYCQTWGTGNHWVFGGGTKLTVL | – | – | – | – | 0.169 | 1.14 | 0.025 | 14.5 | no binding | no binding
A-10 (antibody, V domains shown) VH: QVQLVQSGGGVVQPGRSLRLSCAASGFTFSSYGMHWVRQAPGKGLEWVAVISYDGSNKYYTDSVKGRFTISRDNSKNTLYLQMNSLRAEDTAVYYCAKDLPREVYYDILTGYDNPYYYYGMDVWGQGTTVTVSS VL: not shown | – | – | – | – | 1.29 | 0.854 | 0.194 | 9.59 | no binding | no binding
A-11 (antibody, V domains shown) VH: EVQLVESGAEVKKPGSSVMVSCKASGGTFSRYAISWVRQAPGQGLEWMGGIIPVFGIVHYAQKFQGRVTITADKSTSTAYMELSSLRSEDTAAYYCARDRQQQPSPYYYHGMDVWGQGTTVTVSS VL: DIRLTQSPSSLSASVGDRVTITCQASQDISNYLNWYQQKPGKAPKLLIYDASNLETGVPTRFSGSGSGTDFTFTISSLQPEDIATYYCQQYDNLPLFGGGTKVEIK | – | – | – | – | 0.613 | 1.29 | 0.092 | 6.92 | no binding | no binding
